# B1: E3 ubiquitin-protein ligase LRSAM1 (Homo sapiens), Q6UWE0 (parent)
# chain: MPLFFRKRKPSEEARKRLEYQMCLAKEAGADDILDISKCELSEIPFGAFATCKVLQKKVLIVHTNHLTSLLPKSCSLLSLATIKVLDLHDNQLTALPDDLGQLTALQVLNVERNQLMQLPRSIGNLTQLQTLNVKDNKLKELPDTVGELRSLRTLNISGNEIQRLPQMLAHVRTLEMLSLDASAMVYPPREVCGAGTAAILQFLCKESGLEYYPPSQYLLPILEQDGIENSRDSPDGPTDRFSREELEWQNRFSDYEKRKEQKMLEKLEFERRLELGQREHTQLLQQSSSQKDEILQTVKEEQSRLEQGLSEHQRHLNAERQRLQEQLKQTEQNISSRIQKLLQDNQRQKKSSEILKSLENERIRMEQLMSITQEETESLRRRDVASAMQQMLTESCKNRLIQMAYESQRQNLVQQACSSMAEMDERFQQILSWQQMDQNKAISQILQESAMQKAAFEALQVKKDLMHRQIRSQIKLIETELLQLTQLELKRKSLDTESLQEMISEQRWALSSLLQQLLKEKQQREEELREILTELEAKSETRQENYWLIQYQRLLNQKPLSLKLQEEGMERQLVALLEELSAEHYLPIFAHHRLSLDLLSQMSPGDLAKVGVSEAGLQHEILRRVQELLDAARIQPELKPPMGEVVTPTAPQEPPESVRPSAPPAELEVQASECVVCLEREAQMIFLNCGHVCCCQQCCQPLRTCPLCRQDIAQRLRIYHSS
# Variants of: B1
# Details: with G3BP1, Q13283
# Chain of G3BP1, Q13283 (Q13283 whole entry, looked up): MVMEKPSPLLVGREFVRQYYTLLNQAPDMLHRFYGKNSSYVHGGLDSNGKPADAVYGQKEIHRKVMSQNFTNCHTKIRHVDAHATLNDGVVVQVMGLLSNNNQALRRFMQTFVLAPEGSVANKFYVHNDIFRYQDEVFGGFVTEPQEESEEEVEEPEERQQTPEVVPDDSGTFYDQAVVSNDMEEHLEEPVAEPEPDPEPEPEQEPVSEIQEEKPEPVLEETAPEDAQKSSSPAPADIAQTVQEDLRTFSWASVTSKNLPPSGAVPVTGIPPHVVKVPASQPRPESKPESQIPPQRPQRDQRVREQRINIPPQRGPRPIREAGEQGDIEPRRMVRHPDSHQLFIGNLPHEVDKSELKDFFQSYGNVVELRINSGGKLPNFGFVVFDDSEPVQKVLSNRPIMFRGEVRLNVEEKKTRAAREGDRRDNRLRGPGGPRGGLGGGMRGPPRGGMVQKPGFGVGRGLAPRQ
row,Variant,effect of a mutation on the interaction
1,C694R,disrupting interaction strength

# Variants of: B1
# Details: with fus_mouse Fus
row,Variant,effect of a mutation on the interaction
1,C694R,disrupting interaction strength

# From IntAct's records for PubMed 27615052
